Target: SARS-CoV-2 spike protein (SARS-CoV-2, UniProt P0DTC2 14-1213)
Test: ELONA; binding buffer 50 mM HEPES pH 7.4, 100 mM NaCl, 5 mM KCl, 2 mM MgCl2, 1 mM CaCl2; […]
Settings: protein: recombinant, chain copies: 3, label: biotin

B1: aptamer 6.8 (ssDNA)
DNA: GCAATGGTACGGTACTTCCCGGGGCGGGCTGTCATGCCCATCCTACCGTGACCGCAAAAGTGCACGCTACTTTGCTAA
binding result (predicted partial stem-loops): no binding

B2: aptamer 6.9 (ssDNA)
DNA: GCAATGGTACGGTACTTCCATGGCTGGTGCTTGAGGTGTGTGTGGGGGTAGGGCCAAAAGTGCACGCTACTTTGCTAA
binding result: no binding
